Reference: publication PMC4072508, “Genome-Wide Prediction and Validation of Peptides That Bind Human Prosurvival Bcl-2 Proteins” (PLoS Computational Biology, 2014)

T1: Bfl-1, Q16548
T1 chain: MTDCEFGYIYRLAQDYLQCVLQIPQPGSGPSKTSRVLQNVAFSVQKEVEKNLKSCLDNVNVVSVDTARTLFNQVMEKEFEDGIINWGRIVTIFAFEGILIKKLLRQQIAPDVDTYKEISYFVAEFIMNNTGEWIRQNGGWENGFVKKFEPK

T2: Mcl-1, Q07820
T2 chain: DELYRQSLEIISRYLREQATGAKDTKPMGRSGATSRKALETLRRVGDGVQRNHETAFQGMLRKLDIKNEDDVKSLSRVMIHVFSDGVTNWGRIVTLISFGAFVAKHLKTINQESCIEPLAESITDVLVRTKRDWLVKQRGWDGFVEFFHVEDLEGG


Target: T1, Bfl-1, Q16548
Test: peptide SPOT array, c-Myc-tagged receptor at 1 uM or 100 nM, anti-c-Myc-Cy3

Row | SPOT signal as a fraction of Bim BH3's signal on the same receptor and array | Binder
1 | 0.03 | VLLTLLVAAVDRCQGQDVQEAGSCVQ [COL2A1]
2 | 0.04 | QCPIFRLGDIFRETGDNFSDVAIQGG
3 | 0.05 | SQGKHGFTMADNAFGDMTNEEFRQMM [CTSL2]
4 | 0.05 | GYPFNDVCQWFIDRLDLIFVVFDPTK [SRL]
5 | 0.04 | KIETTPESRYLAQILDSVSLTCSTTG [VCAM1]
6 | 0.04 | NGGLLEFHKSDQEIGDKNDHWFDIDP [DZIP3]
7 | 0.07 | AELEVECATQDRRFGDKLNFRQKLLN [PMAIP1]
8 | 0.04 | DSLLWKLAGLLRESLDVVLSGCSTLS [STK11IP]
9 | 0.04 | ADVHGIWSRLFCDFGDEFEVLDTTGE [UBA6]
10 | 1.19 | FKAWGKFGGAFCRYLDEMKEIQERQR [PURB]
11 | 0.03 | QCPIFRLGDIDRETGDNFSDVAIQGG
12 | 0.61 | TRRSMVFARHLREVLDEFRSRHLNST [POFUT2]
13 | 0.39 | QAGPVSSGLALRKLGDRVQLLNLLVT [CCDC57]
14 | 0.62 | KLALEQRCRELRARGRRLEETLPRRI [KIF19]
15 | 0.05 | WLKGDILGEKDVNLADCLCNEDLESR

Further lines, the binder ahead of its results:

Row | Binder | SPOT signal as a fraction of Bim BH3's signal on the same receptor and array
16 | MRSQLGKATALAIMLDKLWWADQVSE [LRP1] | 0.09
17 | LFWTPLLVVLDAGLGDTEAQQTTLHP | 0.05
18 | RMIVDCVSSHLKKTLDGAKTFIIFLC [BBS10] | 0.24
19 | VDSIRPKCQEDRHLCDQFSAEIARRR [MCF2L] | 0.1
20 | SMRRNAMGVGLVFEADLFTTRHISHW [DNAH10] | 0.3
21 | SGLPGLSSVDINNFGDSINESEGIPL [MKI67] | 0.04
22 | ISSLDLLPYGLRYIAKVLKNSIHEKF [IQGAP2] | 0.64
23 | WLKGDILGEKLVNLADCLCNEDLESR | 0.06
24 | MEMYQPSAVVDQCGADSLSGDRLGCF [HDAC2] | 0.03
25 | APEEDFFSIHDRIVGDWTEGLFNACG [CYBB] | 0.03
26 | TGSLCEIATTDSFEGDGFLWVKSGSV [CRB1] | 0.03
27 | QEQEQHVPFDIHTYGDQLVSRFPQLN [NCAPH2] | 0.05
28 | LFWTPLLVVLLAGLGDTEAQQTTLHP | 0.04
29 | AFGLGDLPNLLGLVLDQLGDTERKRR [ADAMTS14] | 0.05
30 | CHGLRELALNDHLLSDELLLALSSEK [FBXL3] | 0.04
31 | YFKLFRASGDMRTNLDNYLYEIQLSS [IGF2R] | 0.37
32 | SSTMGQVGRQLAIILDDINRRYDSEF [BAK1] | 0.01

Target: Bcl-xL, Q07817
Sequence (Q07817 1-209): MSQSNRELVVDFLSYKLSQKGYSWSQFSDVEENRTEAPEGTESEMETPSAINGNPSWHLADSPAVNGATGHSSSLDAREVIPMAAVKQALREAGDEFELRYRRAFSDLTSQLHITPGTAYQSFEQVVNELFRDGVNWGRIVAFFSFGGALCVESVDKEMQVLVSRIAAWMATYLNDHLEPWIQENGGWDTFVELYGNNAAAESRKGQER
Test: as above

Row | SPOT signal as a fraction of Bim BH3's signal on the same receptor and array | Binder
33 | 0.05 | VLLTLLVAAVDRCQGQDVQEAGSCVQ [COL2A1]
34 | 0.07 | QCPIFRLGDIFRETGDNFSDVAIQGG
35 | 0.06 | SQGKHGFTMADNAFGDMTNEEFRQMM [CTSL2]
36 | 0.06 | GYPFNDVCQWFIDRLDLIFVVFDPTK [SRL]
37 | 0.07 | KIETTPESRYLAQILDSVSLTCSTTG [VCAM1]
38 | 0.12 | NGGLLEFHKSDQEIGDKNDHWFDIDP [DZIP3]
39 | 0.06 | AELEVECATQDRRFGDKLNFRQKLLN [PMAIP1]
40 | 0.06 | DSLLWKLAGLLRESLDVVLSGCSTLS [STK11IP]
41 | 0.07 | ADVHGIWSRLFCDFGDEFEVLDTTGE [UBA6]
42 | 1.19 | FKAWGKFGGAFCRYLDEMKEIQERQR [PURB]
43 | 0.05 | QCPIFRLGDIDRETGDNFSDVAIQGG
44 | 0.74 | TRRSMVFARHLREVLDEFRSRHLNST [POFUT2]
45 | 1.06 | QAGPVSSGLALRKLGDRVQLLNLLVT [CCDC57]
46 | 1.22 | KLALEQRCRELRARGRRLEETLPRRI [KIF19]
47 | 0.07 | WLKGDILGEKDVNLADCLCNEDLESR

The next lines start with the binder.

Row | Binder | SPOT signal as a fraction of Bim BH3's signal on the same receptor and array
48 | MRSQLGKATALAIMLDKLWWADQVSE [LRP1] | 0.12
49 | LFWTPLLVVLDAGLGDTEAQQTTLHP | 0.06
50 | RMIVDCVSSHLKKTLDGAKTFIIFLC [BBS10] | 0.61
51 | VDSIRPKCQEDRHLCDQFSAEIARRR [MCF2L] | 0.25
52 | SMRRNAMGVGLVFEADLFTTRHISHW [DNAH10] | 0.24
53 | SGLPGLSSVDINNFGDSINESEGIPL [MKI67] | 0.08
54 | ISSLDLLPYGLRYIAKVLKNSIHEKF [IQGAP2] | 0.8
55 | WLKGDILGEKLVNLADCLCNEDLESR | 0.07
56 | MEMYQPSAVVDQCGADSLSGDRLGCF [HDAC2] | 0.06
57 | APEEDFFSIHDRIVGDWTEGLFNACG [CYBB] | 0.05
58 | TGSLCEIATTDSFEGDGFLWVKSGSV [CRB1] | 0.06
59 | QEQEQHVPFDIHTYGDQLVSRFPQLN [NCAPH2] | 0.06
60 | LFWTPLLVVLLAGLGDTEAQQTTLHP | 0.06
61 | AFGLGDLPNLLGLVLDQLGDTERKRR [ADAMTS14] | 0.07
62 | CHGLRELALNDHLLSDELLLALSSEK [FBXL3] | 0.06
63 | YFKLFRASGDMRTNLDNYLYEIQLSS [IGF2R] | 0.28
64 | SSTMGQVGRQLAIILDDINRRYDSEF [BAK1] | 0.02

Target: T2, Mcl-1, Q07820
Test: as above

Row | SPOT signal as a fraction of Bim BH3's signal on the same receptor and array | Binder
65 | 0.05 | VLLTLLVAAVDRCQGQDVQEAGSCVQ [COL2A1]
66 | 0.05 | QCPIFRLGDIFRETGDNFSDVAIQGG
67 | 0.06 | SQGKHGFTMADNAFGDMTNEEFRQMM [CTSL2]
68 | 0.05 | GYPFNDVCQWFIDRLDLIFVVFDPTK [SRL]
69 | 0.04 | KIETTPESRYLAQILDSVSLTCSTTG [VCAM1]
70 | 0.04 | NGGLLEFHKSDQEIGDKNDHWFDIDP [DZIP3]
71 | 0.05 | AELEVECATQDRRFGDKLNFRQKLLN [PMAIP1]
72 | 0.05 | DSLLWKLAGLLRESLDVVLSGCSTLS [STK11IP]
73 | 0.04 | ADVHGIWSRLFCDFGDEFEVLDTTGE [UBA6]
74 | 1.07 | FKAWGKFGGAFCRYLDEMKEIQERQR [PURB]
75 | 0.04 | QCPIFRLGDIDRETGDNFSDVAIQGG
76 | 0.9 | TRRSMVFARHLREVLDEFRSRHLNST [POFUT2]
77 | 0.57 | QAGPVSSGLALRKLGDRVQLLNLLVT [CCDC57]
78 | 0.58 | KLALEQRCRELRARGRRLEETLPRRI [KIF19]
79 | 0.04 | WLKGDILGEKDVNLADCLCNEDLESR

Continued, binder first:

Row | Binder | SPOT signal as a fraction of Bim BH3's signal on the same receptor and array
80 | MRSQLGKATALAIMLDKLWWADQVSE [LRP1] | 0.18
81 | LFWTPLLVVLDAGLGDTEAQQTTLHP | 0.04
82 | RMIVDCVSSHLKKTLDGAKTFIIFLC [BBS10] | 0.21
83 | VDSIRPKCQEDRHLCDQFSAEIARRR [MCF2L] | 0.08
84 | SMRRNAMGVGLVFEADLFTTRHISHW [DNAH10] | 0.32
85 | SGLPGLSSVDINNFGDSINESEGIPL [MKI67] | 0.04
86 | ISSLDLLPYGLRYIAKVLKNSIHEKF [IQGAP2] | 0.57
87 | WLKGDILGEKLVNLADCLCNEDLESR | 0.05
88 | MEMYQPSAVVDQCGADSLSGDRLGCF [HDAC2] | 0.04
89 | APEEDFFSIHDRIVGDWTEGLFNACG [CYBB] | 0.03
90 | TGSLCEIATTDSFEGDGFLWVKSGSV [CRB1] | 0.04
91 | QEQEQHVPFDIHTYGDQLVSRFPQLN [NCAPH2] | 0.04
92 | LFWTPLLVVLLAGLGDTEAQQTTLHP | 0.04
93 | AFGLGDLPNLLGLVLDQLGDTERKRR [ADAMTS14] | 0.06
94 | CHGLRELALNDHLLSDELLLALSSEK [FBXL3] | 0.04
95 | YFKLFRASGDMRTNLDNYLYEIQLSS [IGF2R] | 0.39
96 | SSTMGQVGRQLAIILDDINRRYDSEF [BAK1] | 0.01
